Test [1] deals with FGFR2 isoform FGFR2-IIIb (FGFR2b), on the surface of cancer cell lines (UniProt P21802). Kind of test: flow cytometry on HARA cells (squamous lung cancer), detected with APC anti-human IgG1. On the technique in general: In flow cytometry, cells or beads pass a laser one at a time.
Test [2] shares this target. Kind of test: flow cytometry on LUDLU1 cells (squamous lung cancer), detected with APC anti-human IgG1.
For test [3] the target is unchanged. Kind of test: flow cytometry on HCC1187 cells (TNBC), detected with APC anti-human IgG1.
Test [4] shares this target. Kind of test: flow cytometry on NCIH2170 cells (squamous lung cancer), detected with APC anti-human IgG1.
Test [5] has the same target. Kind of test: flow cytometry on KATOIII cells (gastric cancer, positive control), detected with APC anti-human IgG1.
For test [6] the target is unchanged. Kind of test: flow cytometry on HCC1806 cells (TNBC), detected with APC anti-human IgG1.
For test [7] the target is unchanged. Kind of test: flow cytometry on HCC1569 cells (TNBC), detected with APC anti-human IgG1.
The target is the same in test [8]. Nature of the test: flow cytometry on SW1573 cells (squamous lung cancer), detected with APC anti-human IgG1.
The target is the same in test [9]. Nature of the test: flow cytometry on BT20 cells (TNBC), detected with APC anti-human IgG1.
The target is the same in test [10]. Kind of test: flow cytometry on LC1F cells (squamous lung cancer), detected with APC anti-human IgG1.
Test [11] shares this target. Nature of the test: flow cytometry on KNS-62 cells (squamous lung cancer), detected with APC anti-human IgG1.
Test [12] has the same target. Nature of the test: flow cytometry on SNU16 cells (gastric cancer, positive control), detected with APC anti-human IgG1.
For test [13] the target is unchanged. Nature of the test: flow cytometry on EPLC-272H cells (squamous lung cancer), detected with APC anti-human IgG1.
The target is the same in test [14]. Kind of test: flow cytometry on HCC1937 cells (TNBC), detected with APC anti-human IgG1.
The target is the same in test [15]. Kind of test: flow cytometry on HCC38 cells (TNBC), detected with APC anti-human IgG1.
Test [16] shares this target. Nature of the test: flow cytometry on SW900 cells (squamous lung cancer), detected with APC anti-human IgG1.
For test [17] the target is unchanged. Kind of test: flow cytometry on SNU16-Luc cells (gastric cancer, positive control), detected with APC anti-human IgG1.

B1: bemarituzumab (antibody, human IgG1, kappa, V domains shown)
VH: QVQLVQSGAEVKKPGSSVKVSCKASGYIFTTYNVHWVRQAPGQGLEWIGSIYPDNGDTSYNQNFKGRATITADKSTSTAYMELSSLRSEDTAVYYCARGDFAYWGQGTLVTVSS
VL: DIQMTQSPSSLSASVGDRVTITCKASQGVSNDVAWYQQKPGKAPKLLIYSASYRYTGVPSRFSGSGSGTDFTFTISSLQPEDIATYYCQQHSTTPYTFGQGTKLEIKR
modifications: afucosylated: glycan at Asn297 (EU numbering) lacks core fucose
Consider B1, for which the Mean Fluorescence Intensity by FACS is 401 MFI in [1]; 638 MFI in test [2]; -6 MFI in test [3]; 153 MFI in test [4]; 20400 MFI in test [5]; 401 MFI in test [6]. Further, the Mean Fluorescence Intensity by FACS in [7] was 1360 MFI; in test [8], -1.2 MFI; in test [9] it was 252 MFI; in test [10] it was 123 MFI; in test [11], 572 MFI; in test [12], 7800 MFI. Moreover, the Mean Fluorescence Intensity by FACS in [13] turned out to be 759 MFI; in test [14], 690 MFI; in [15], 346 MFI; in test [16] it was 10.3 MFI; in test [17], 7960 MFI.

The values are drawn from patent US20250243284A1.
